Measured values published in PMC7487859.

Tests used:
[1] = system: PDGFRbeta (mouse, on 4T1 cells) (Mus musculus); test: streptavidin-biotin cell binding assay; conditions: apparent Kd on intact 4T1 cells; Scr background subtracted; 2'-fluoro pyrimidines; 4T1 cells (2x10^4/well), 10-500 nM aptamer, 10 min, room temperature, BlockAid blocking solution with 1 mg/ml yeast tRNA and 1 mg/ml salmon sperm DNA; salt and …
[2] = system: PDGFRbeta (human, on MDA-MB-231 cells) (Homo sapiens); test: cell binding assay; conditions: intact MDA-MB-231 cells; 2'-fluoro pyrimidines; 10-500 nM aptamer, 10 min, room temperature, BlockAid blocking solution with 1 mg/ml yeast tRNA and 1 mg/ml salmon sperm DNA; salt; cited from earlier work

| Substance | Kd [1] [µM] | Kd [2] [µM] |
| --- | --- | --- |
| Gint4.T | 0.0768 |  |
| Gint4.T (as in cited ref 31) |  | 0.0575 |
